Consider 1 molecule from publication PMC6018948.

The target in series [1] is T1, ARR1 (UniProt Q940D0 1-690).
T1 sequence: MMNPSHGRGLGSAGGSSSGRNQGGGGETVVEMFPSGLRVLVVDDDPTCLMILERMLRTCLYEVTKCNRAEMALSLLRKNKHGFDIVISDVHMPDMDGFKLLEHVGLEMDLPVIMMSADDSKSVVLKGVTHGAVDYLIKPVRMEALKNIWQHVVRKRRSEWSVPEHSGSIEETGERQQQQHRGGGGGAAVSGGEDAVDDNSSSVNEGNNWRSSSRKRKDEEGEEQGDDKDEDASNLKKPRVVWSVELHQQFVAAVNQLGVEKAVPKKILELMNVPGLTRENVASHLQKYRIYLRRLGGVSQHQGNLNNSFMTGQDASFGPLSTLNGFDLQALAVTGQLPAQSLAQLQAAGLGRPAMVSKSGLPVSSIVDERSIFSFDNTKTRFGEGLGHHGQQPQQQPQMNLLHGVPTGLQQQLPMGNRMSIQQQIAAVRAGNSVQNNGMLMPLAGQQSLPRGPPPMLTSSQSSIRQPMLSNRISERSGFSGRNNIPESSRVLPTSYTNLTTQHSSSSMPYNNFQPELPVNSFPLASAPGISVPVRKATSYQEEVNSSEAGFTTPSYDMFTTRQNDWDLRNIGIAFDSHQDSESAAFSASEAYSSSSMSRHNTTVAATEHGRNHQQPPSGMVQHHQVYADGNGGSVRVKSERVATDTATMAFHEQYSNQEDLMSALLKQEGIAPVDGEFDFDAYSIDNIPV
Briefly: competition.

Series [2] deals with T2, ARR10 (UniProt O49397 1-552).
T2 sequence: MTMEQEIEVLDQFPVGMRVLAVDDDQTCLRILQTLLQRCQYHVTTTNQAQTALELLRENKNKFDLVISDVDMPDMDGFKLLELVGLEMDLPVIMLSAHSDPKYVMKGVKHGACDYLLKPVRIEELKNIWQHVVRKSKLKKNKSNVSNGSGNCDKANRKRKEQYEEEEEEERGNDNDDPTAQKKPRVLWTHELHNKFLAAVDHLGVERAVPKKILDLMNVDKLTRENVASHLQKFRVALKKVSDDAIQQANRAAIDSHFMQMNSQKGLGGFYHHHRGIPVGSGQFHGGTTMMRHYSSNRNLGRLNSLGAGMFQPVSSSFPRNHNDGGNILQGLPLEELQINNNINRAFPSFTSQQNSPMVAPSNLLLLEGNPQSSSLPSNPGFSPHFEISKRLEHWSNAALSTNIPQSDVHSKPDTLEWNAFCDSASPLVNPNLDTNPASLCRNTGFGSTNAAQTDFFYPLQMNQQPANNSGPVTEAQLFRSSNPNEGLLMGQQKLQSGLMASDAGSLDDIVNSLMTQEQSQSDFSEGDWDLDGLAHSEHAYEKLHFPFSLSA
Description: competition.

B1: AG mutated competitor (dsDNA)
DNA 1: TTTAAAGCAATGGTTACAATTTTAATACTATCAAATGTCTATTGCTTTTA
DNA 2: TAAAAGCAATAGACATTTGATAGTATTAAAATTGTAACCATTGCTTTAAA
For B1, the binding result in series [1] and in series [2] was “no binding” in each case.
